From patent US20250186614A1, “COMPACT DRUG RESPONSIVE DOMAINS FOR REGULATION OF FUNCTION/ABUNDANCE AND DELIVERY OF POLYPEPTIDE PAYLOADS” (OBSIDIAN THERAPEUTICS, INC., priority 2022, published 2025)

Test system: Jurkat cells
Experiment: Tacrolimus dose response of FKBP13-AcGFP-mCherry constructs stably transduced into Jurkat cells, GFP MFI by flow cytometry
Type: cell-based
Design: Basal: unit not given here
In short: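 GFP geometric MFI was read by flow cytometry in mCherry+ cells and curve-fitted against tacrolimus dose. Cells were Jurkat E6-1, lentivirus-transduced with FKBP13-AcGFP-mCherry fusion constructs until 10-25% mCherry-positive on day 5 post-transduction.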

[1] = tacrolimus, Jurkat cells stably transduced, Table 6
[2] = tacrolimus, Jurkat cells, Table 13

B1: FKBP-145: FKBP13 DRD Q72R, Q84E, A117H, H41S, E61D; SEQ ID NO: 95 (protein)
chain: SCPIKSRKGDVLHMHYTGKLDDGTEFDSSLPRNQPFVFSLGTGEVIKGWDQGLLGMCEGEKRKLVIPSELGYGERGHPPKIPGGATLVFEVELLKIER
modifications: Description of sequence: FKBP13-AcGFP-mCherry Fusion; Construct Name: FKBP-145; FKBP13 DRD in Construct : FKBP13 (mutated to match FKBP12 active site Q72R Q84E A117H) (DRD H41S E61D)
[1]
  Fold Change: 11.05

B2: FKBP-262: FKBP13 DRD-AcGFP construct of Table 10 (protein)
chain: HCRIKSRKGDVLHMHYTGKLEDGTEFDSSLPRNQPFVFSLGTGERIKGWDQGLLGMCEGEKRKLVIPSELGYGERGWPPKIPGGATLVFEVELLYIER
modifications: Description of sequence: Construct Name: FKBP-262; Mutation(s): Q72R Q84E A117W V85R DRD P43R K135Y
FIG. 49, BR1 (Biorep 1)
  Basal: 59.5
  FC: 66.64
  At 10 uM: 3965
FIG. 49, BR2 (Biorep 2)
  Basal: 73.7
  FC: 52.21
  At 10 uM: 3848
tacrolimus, FIGS. 31 and 32
  FC: 73
[2]
  Fold Change: 73

B3: FKBP-260: FKBP13 DRD-AcGFP construct of Table 10 (protein)
chain: HCPIKSRKGDVLHMHYTGKLEDGTEFDSSLPRNQPFVFSLGTGERIKGWDQGLLGMCEGENRKLVIPSELGYGERGWPPKIPGGATLVFEVELLKIER
modifications: Description of sequence: Construct Name: FKBP-260; Mutation(s): Q72R Q84E A117W V85R DRD K101N
tacrolimus, FIGS. 31 and 32
  FC: 51
[2]
  Fold Change: 51

B4: FKBP-267 (protein)
chain: HCPIKSRKGDVLHMHYTGKLEDGTEFDSSLPRNQPFVFSLGTGERIKGWDQGLLGWCEGEKRKLVIPSELGYGERGWPPKIPGGATLVFEVELLKIER
modifications: Description of sequence: Construct Name: FKBP-267; Mutation(s): Q72R Q84E A117W V85R DRD M96W
[2]
  Fold Change: 67

B5: FKBP-120: FKBP13 DRD Q72R, Q84E, A117H, K101W; SEQ ID NO: 70 (protein)
chain: HCPIKSRKGDVLHMHYTGKLEDGTEFDSSLPRNQPFVFSLGTGEVIKGWDQGLLGMCEGEWRKLVIPSELGYGERGHPPKIPGGATLVFEVELLKIER
modifications: Description of sequence: FKBP13-AcGFP-mCherry Fusion; Construct Name: FKBP-120; FKBP13 DRD in Construct : FKBP13 (mutated to match FKBP12 active site Q72R Q84E A117H) (DRD K101W)
[1]
  Fold Change: 30.53

B6: FKBP-146: FKBP13 DRD Q72R, Q84E, A117H, L104S, I136L; SEQ ID NO: 96 (protein)
chain: HCPIKSRKGDVLHMHYTGKLEDGTEFDSSLPRNQPFVFSLGTGEVIKGWDQGLLGMCEGEKRKSVIPSELGYGERGHPPKIPGGATLVFEVELLKLER
modifications: Description of sequence: FKBP13-AcGFP-mCherry Fusion; Construct Name: FKBP-146; FKBP13 DRD in Construct : FKBP13 (mutated to match FKBP12 active site Q72R Q84E A117H) (DRD L104S I136L)
[1]
  Fold Change: 1.19

B7: FKBP-265: FKBP13 DRD-AcGFP construct of Table 10 (protein)
chain: HCPIKSRKGDVLHMHYTGKLEDGTEFDSSLPRNQPFVFSLGWGRRIKGWDQGLLGMCEGEKRKLVIPSELGYGERGWPPKIPGGATLVFEVELLKIER
modifications: Description of sequence: Construct Name: FKBP-265; Mutation(s): Q72R T82W Q84R A117W DRD V85R
FIG. 45, BR1 (Biorep 1)
  Basal: 78
  FC: 53.72
  At 10 uM: 4190
FIG. 45, BR2 (Biorep 2)
  Basal: 102
  FC: 41.58
  At 10 uM: 4241
tacrolimus, FIGS. 31 and 32
  FC: 58
[2]
  Fold Change: 53.72

B8: FKBP-148: FKBP13 DRD Q72R, Q84E, A117H, D62N, D67N, D90N, M96G, E130K; SEQ ID NO: 98 (protein)
chain: HCPIKSRKGDVLHMHYTGKLENGTEFNSSLPRNQPFVFSLGTGEVIKGWNQGLLGGCEGEKRKLVIPSELGYGERGHPPKIPGGATLVFKVELLKIER
modifications: Description of sequence: FKBP13-AcGFP-mCherry Fusion; Construct Name: FKBP-148; FKBP13 DRD in Construct : FKBP13 (mutated to match FKBP12 active site Q72R Q84E A117H) (DRD D62N D67N D90N M96G E130K)
[1]
  Fold Change: 1.09

B9: FKBP-119: FKBP13 DRD Q72R, Q84E, A117W, K101W; SEQ ID NO: 69 (protein)
chain: HCPIKSRKGDVLHMHYTGKLEDGTEFDSSLPRNQPFVFSLGTGEVIKGWDQGLLGMCEGEWRKLVIPSELGYGERGWPPKIPGGATLVFEVELLKIER
modifications: Description of sequence: FKBP13-AcGFP-mCherry Fusion; Construct Name: FKBP-119; FKBP13 DRD in Construct : FKBP13 (mutated to match FKBP12 active site Q72R Q84E A117W) (DRD K101W )
[1]
  Fold Change: 31.91

B10: FKBP-149: FKBP13 DRD Q72R, Q84E, A117H, T64Q, L94G; SEQ ID NO: 99 (protein)
chain: HCPIKSRKGDVLHMHYTGKLEDGQEFDSSLPRNQPFVFSLGTGEVIKGWDQGLGGMCEGEKRKLVIPSELGYGERGHPPKIPGGATLVFEVELLKIER
modifications: Description of sequence: FKBP13-AcGFP-mCherry Fusion; Construct Name: FKBP-149; FKBP13 DRD in Construct : FKBP13 (mutated to match FKBP12 active site Q72R Q84E A117H) (DRD T64Q L94G)
[1]
  Fold Change: 39.28

B11: FKBP-147: FKBP13 DRD Q72R, Q84E, A117H, T64R, S108G, E137F; SEQ ID NO: 97 (protein)
chain: HCPIKSRKGDVLHMHYTGKLEDGREFDSSLPRNQPFVFSLGTGEVIKGWDQGLLGMCEGEKRKLVIPGELGYGERGHPPKIPGGATLVFEVELLKIFR
modifications: Description of sequence: FKBP13-AcGFP-mCherry Fusion; Construct Name: FKBP-147; FKBP13 DRD in Construct : FKBP13 (mutated to match FKBP12 active site Q72R Q84E A117H) (DRD T64R S108G E137F)
[1]
  Fold Change: 26.65

B12: FKBP-118: FKBP13 DRD Q72R, Q84E, A117H, V85R; SEQ ID NO: 68 (protein)
chain: HCPIKSRKGDVLHMHYTGKLEDGTEFDSSLPRNQPFVFSLGTGERIKGWDQGLLGMCEGEKRKLVIPSELGYGERGHPPKIPGGATLVFEVELLKIER
modifications: Description of sequence: FKBP13-AcGFP-mCherry Fusion; Construct Name: FKBP-118; FKBP13 DRD in Construct : FKBP13 (mutated to match FKBP12 active site Q72R Q84E A117H) (DRD V85R)
[1]
  Fold Change: 12.95

B13: FKBP-266 (protein)
chain: HCPIKSRKGLVLHMHYTGKLEDGTEFDSSLPRNQPFVFSLGTGERIKGWDQGLLGMCEGEKRKLVIPSELGYGERGWPPKIPGGATLVFEVELLKIER
modifications: Description of sequence: Construct Name: FKBP-266; Mutation(s): Q72R Q84E A117W V85R DRD D50L
[2]
  Fold Change: 60

B14: FKBP-264: FKBP13 DRD-AcGFP construct of Table 10 (protein)
chain: HCPIKSRKGDVLHMHYTGKLEDGTEFDSSLPRNQPFVFWLGTGRRIKGWDQGLLGMCEGEKRKLVIPSELGYGERGWPPKIPGGATLVFEVELLKIER
modifications: Description of sequence: Construct Name: FKBP-264; Mutation(s): Q72R S79W Q84R A117W DRD V85R
FIG. 45, BR1 (Biorep 1)
  Basal: 127
  FC: 37.06
  At 10 uM: 4706
[2]
  Fold Change: 37.08

B15: FKBP-268: FKBP13 DRD-AcGFP construct of Table 10 (protein)
chain: HRPIKSRKGDVLHMHYTGKLEDGTEFDSSLPRNQPFVFSLGTGERIKGWDQGLLGMCEGEKRKLVIPSELGYGERGWPPKIPGGATLVFEVELLKIER
modifications: Description of sequence: Construct Name: FKBP-268; Mutation(s): Q72R Q84E A117W V85R DRD C42R
tacrolimus, FIGS. 31 and 32
  FC: 18
[2]
  Fold Change: 18

B16: FKBP-150: FKBP13 DRD Q72R, Q84E, A117H, E61G, G124P; SEQ ID NO: 100 (protein)
chain: HCPIKSRKGDVLHMHYTGKLGDGTEFDSSLPRNQPFVFSLGTGEVIKGWDQGLLGMCEGEKRKLVIPSELGYGERGHPPKIPGPATLVFEVELLKIER
modifications: Description of sequence: FKBP13-AcGFP-mCherry Fusion; Construct Name: FKBP-150; FKBP13 DRD in Construct : FKBP13 (mutated to match FKBP12 active site Q72R Q84E A117H) (DRD E61G G124P)
[1]
  Fold Change: 21.15
